# Assay results taken from PMC2701634.
# Values joined by “and” are separate entries in the source; they are usually repeats but may differ in a detail not shown here. Equal values may be shown once.
# Legend:
# Assay in all cases: native gel or EMSA; purified p66 on NativePage Novex Bis-Tris gel, then Western blotting with mouse monoclonal anti-RT antibody; in the presence or absence of β-mercaptoethanol
# [1] = target: HIV-1 reverse transcriptase p66 subunit, mutant I274A (HIV-1 (pNL4-3-ΔE-EGFP))
# [2] = target: HIV-1 reverse transcriptase p66 subunit, mutant Y271A (HIV-1 (pNL4-3-ΔE-EGFP))
# [3] = target: HIV-1 reverse transcriptase p66 subunit, wild type (HIV-1 (pNL4-3-ΔE-EGFP))
substance,measurement,setting,value
"HIV-1 reverse transcriptase p66 subunit, mutant I274A (enzyme)",stoichiometry N,[1],4 and 8
"HIV-1 reverse transcriptase p66 subunit, mutant Y271A (enzyme)",stoichiometry N,[2],2 and 4
"HIV-1 reverse transcriptase p66 subunit, wild type (enzyme)",stoichiometry N,[3],2
